Source: patent US8410045B2, “Camptothecin-peptide conjugates and pharmaceutical compositions containing the same” (Drais Pharmaceuticals, Inc., priority 2006, dated 2013)
Read-outs that look alike come from different tables or passages of the source. Where a SMILES comes first, the peptide text is derived from it. Where no end group is shown, it is not given here. The star is where a group is joined. X2 = CCc1c2c(nc3ccc(OC(=O)[C@H]4CC[C@H](CNC(=O)CCCCCNC(=O)C5CCC(CN6C(=O)CC(*)C6=O)CC5)CC4)cc13)-c1cc3c(c(=O)n1C2)COC(=O)[C@]3(O)CC; X4 = CC[C@@]1(O)C(=O)OCc2c1cc1n(c2=O)Cc2cc3cc(OC(=O)[C@H]4CC[C@H](CNC(=O)C5CCC(CN6C(=O)CC(*)C6=O)CC5)CC4)ccc3nc2-1; X3 = CCc1c2c(nc3ccc(OC(=O)CCCCCNC(=O)C4CCC(CN5C(=O)CC(*)C5=O)CC4)cc13)-c1cc3c(c(=O)n1C2)COC(=O)[C@]3(O)CC

Experiments:
HT-29 tumors = assay: Combination of DPV1047-BCH-SN38 with 5-FU or bevacizumab in the HT-29 tumor model; settings: 5-FU 40 mg/kg i.v. or bevacizumab 2 mg/kg i.p.
Description: Mice were implanted with HT-29 tumors and treated by intraperitoneal administration (bevacizumab) or bolus intravenous injection (5-FU or DPV1047-BCH-SN38) at 10 μL/g. […] The T/C ratio was calculated following treatment with either bevacizumab, 5-FU or DPV1047-BCH-SN38. These T/C ratios were used to evaluate the expected T/C for combined treatment with bevacizumab and DPV1047-BCH-SN38, or 5-FU and DPV1047-BCH-SN38 (T/C of DPV1047-BCH-SN38×T/C of bevacizumab or 5-FU). […] The combination index of the two molecules was calculated by dividing the expected T/C by the observed T/C.

[1] = Stability of conjugates in citrated plasma at 37° C. (half life time, HPLC fluorescence); type: in vitro ADME, human; settings: human, plasma
Description: (§1) The stability of the conjugates was tested in citrated plasma (10% (v/v) sodium citrate buffer, 0.106M) from different species (see Table 1 below). The conjugates at 2.55 μM were incubated at 37° C. in plasma. Samples were analysed using the HPLC fluorescence method described below (see chromatographic equipment and conditions) following TFA/acetonitrile extraction and the amount of free camptothecin, analogs or derivatives thereof (e.g. SN38) released by the conjugates was measured.
(§2) Chromatographic equipment and conditions: 150 μL of each sample were placed in 1.5 mL micro-centrifuge tubes. 450 μL of 5% (v/v) TFA in H2O was added to each tube and the mixture was vortexed for 5 seconds. Samples were then centrifuged at 16000 g, 3 minutes at +4° C. 100 μL of supernatant were placed in 1.5 mL micro-centrifuge tubes. Methanol (100 μL) was then immediately added and vortexed for 5 seconds. Samples were then centrifuged at 16000 g, 3 minutes at room temperature. 150 μL of supernatant were recovered for HPLC analysis. Conjugates, metabolites and camptothecin derivative (i.e. SN38) were separated by high-performance liquid chromatography (HPLC; Agilent 1100 series equipped with a fluorescence detector) using a 4.6×100 mm ([…] particle size) Luna C18(2) column (Phenomenex ref. 00D-4251-E0, Le Pecq, France). The aqueous component of the mobile phase (A) was 0.1% (v/v) TFA in water. The organic modifier (B) was acetonitrile containing 0.1% (v/v) TFA. For the conjugate and its metabolites an elution gradient increasing linearly the proportion of B from 15 to 37% in 2 min, from 37 to 47% in 6 min, followed by 2 min at 90% was applied with a constant flow rate of 1.2 mL/min. The proportion of B was then returned to the initial condition for 3.0 min.
(§3) The half life time of conjugate corresponds to the time necessary to have 50% by mole of free camptothecin, analogs or derivatives thereof released by the conjugates of the invention. In human plasma, the half life time of conjugate DPV1047-linker #1-SN38 (less than 5 mins) was shorter than that of conjugate DPV1047-linker #2-SN38 (6-7 mins), which, in turn, was shorter than that of conjugate DPV1047-linker #3-SN38 (12 mins).
(§4) As in Example II, the stability of these conjugates was tested in either human or dog plasma. Following incubation at 37° C., samples were analyzed after a TFA acetonitrile extraction by the HPLC fluorescence method described in Example II. The in vitro cytotoxicity (IC50) of these compounds was also evaluated.

[2] = as above; type: in vitro ADME; settings: dog
Description: as §1, §2, §3, §4

[3] = system: HCT 116 human epithelial colon carcinoma cells; assay: cells; type: cell-based
Description: (§5) Cytotoxic evaluation was performed by seeded cells for 24 h prior to the addition of the therapeutic compound. Cells were incubated for 48 h (37° C.) with different dilutions of the therapeutic compound. Cell viability was then assessed using the WST-1 assay (Roche). The results are expressed as mean cytotoxic concentrations (IC50 value or molar concentration that inhibits 50% of cell viability) that were estimated from sigmoid regression, using Graph Pad Prism 3.02 software.
HCT 116 (ATCC #: CCL-247): human epithelial colon carcinoma cells. Cells were cultured in Mc Coy's 5a medium+1.5 mM L-glutamine and 10% fetal bovine serum. Cells were plated at a density of 8000 cells/well in 96-well plates.

[4] = Stability of conjugates in citrated plasma at 37° C. (half life time, HPLC fluorescence); type: in vitro ADME; settings: DPV1047-linker-SN38, 2.55 μM
Description: as §1, §2, §3

[5] = system: NCI-H460 human epithelial lung carcinoma cells; assay: In vitro cytotoxicity (WST-1 cell viability); type: cell-based
Description: as §5
NCI-H460 (ATCC#: HTB-177): human epithelial lung carcinoma cells. Cells were cultured in RPMI 1640+glutamax and 10% of fetal bovine serum. Cells were plated at a density of 10,000 cells/well in 96-well plates.

[6] = line of DPV1047-BCH-SN38 12.5 μmol/kg
[7] = line of DPV1047-BCH-SN38 25 μmol/kg
[8] = DPV1047-linker-SN38, 2.55 μM, citrated plasma, read-out: Half life time, Human plasma
[9] = DPV1047-linker-SN38, 2.55 μM, citrated plasma, read-out: Half life time, Dog plasma
[10] = time to 50% by mole free SN38 released, read-out: Half life time, Mouse plasma
[11] = Table 14, 10-Hydroxycamptothecin conjugates, read-out: Human Plasma Half life time
[12] = Table 14, 10-Hydroxycamptothecin conjugates, read-out: Dog Plasma Half life time

Q: For “bevacizumab: bevacizumab (Avastin®, Roche)”, which “Single treatment Reference drug T/C %” value (HT-29 tumors; [6]) is on record?
A: Its value is 67%.

Q: And the “Single treatment Reference drug T/C %” value (HT-29 tumors; [7])?
A: Its value is 67%.

Q: Which results are given for `CCc1c2c(nc3ccc(OC(=O)[C@H]4CC[C@H](CNC(=O)C5CCC(CN6C(=O)CC(SCC(N)C(=O)N[C@@H](C(=O)N[C@H](CCCCN)C(=O)N[C@H](CCCNC(=N)N)C(=O)NCC(=O)N[C@H](CC(C)C)C(=O)N[C@H](CCCCN)C(=O)N[C@H](CC(C)C)C(=O)N[C@H](CCCNC(=N)N)C(=O)N[C@H](Cc7c[nH]cn7)C(=O)N[C@@H](C(=O)N[C@H](CCCNC(=N)N)C(=O)N7CCC[C@@H]7C(=O)N[C@H](CCCNC(=N)N)C(=O)N[C@@H](C(=O)N[C@@H](C(=O)N[C@H](CCCNC(=N)N)C(=O)N[C@H](CCSC)C(=O)N[C@H](CC(=O)O)C(=O)N[C@@H](C(=O)O)C(C)C)[C@H](C)O)C(C)C)C(C)C)C(C)C)C6=O)CC5)CC4)cc13)-c1cc3c(c(=O)n1C2)COC(=O)[C@]3(O)CC` (some centres unmarked) [DPV1047(D)-linker #5-SN38]?
A: half-life ([1]; Table 12, CPP-linker #5-SN38 conjugates incl. D conformation, read-out: Human Plasma Half life time): 1.83 h; half-life ([2]; Table 12, CPP-linker #5-SN38 conjugates incl. D conformation, read-out: Dog Plasma Half life time): 2.75 h; IC50 ([3]; 48 h): 23 nM

Q: Which half-life [1, 8] does the source give for `CCc1c2c(nc3ccc(OC(=O)CCCCCNC(=O)C4CCC(CN5C(=O)CC(SC[C@H](N)C(=O)N[C@H](C(=O)N[C@@H](CCCCN)C(=O)N[C@@H](CCCNC(=N)N)C(=O)NCC(=O)N[C@@H](CC(C)C)C(=O)N[C@@H](CCCCN)C(=O)N[C@@H](CC(C)C)C(=O)N[C@@H](CCCNC(=N)N)C(=O)N[C@@H](Cc6c[nH]cn6)C(=O)N[C@H](C(=O)N[C@@H](CCCNC(=N)N)C(=O)N6CCC[C@H]6C(=O)N[C@@H](CCCNC(=N)N)C(=O)N[C@H](C(=O)N[C@H](C(=O)N[C@@H](CCCNC(=N)N)C(=O)N[C@@H](CCSC)C(=O)N[C@@H](CC(=O)O)C(=O)N[C@H](C(=O)O)C(C)C)[C@@H](C)O)C(C)C)C(C)C)C(C)C)C5=O)CC4)cc13)-c1cc3c(c(=O)n1C2)COC(=O)[C@]3(O)CC` (some centres unmarked) [DPV1047-linker #4-SN38] (H-C(X3)VKRGLKLRHVRPRVTRMDV-OH) here?
A: Its half-life is 0.667 h.

Q: And the half-life [2, 9]?
A: The half-life was 1.75 h.

Q: And the half-life [4, 10]?
A: The half-life was < 0.05 h.

Q: And the half-life ([4]; monkey)?
A: Its half-life is 0.5 h.

Q: What about the half-life ([4]; rat) of the same molecule?
A: The half-life was 0.05 h.

Q: Which “Single treatment Reference drug T/C %” value (HT-29 tumors; [6]) does the source give for `O=c1[nH]cc(F)c(=O)[nH]1` [5-FU, 5-fluorouracil, reference compound] here?
A: The value was 90%.

Q: What about the “Single treatment Reference drug T/C %” value (HT-29 tumors; [7]) of the same molecule?
A: Its value is 94%.

Q: Which half-life [1, 8] does the source give for `CCc1c2c(nc3ccc(OC(=O)[C@H]4CC[C@H](CNC(=O)CCCCCNC(=O)C5CCC(CN6C(=O)CC(SC[C@H](N)C(=O)N[C@H](C(=O)N[C@@H](CCCCN)C(=O)N[C@@H](CCCNC(=N)N)C(=O)NCC(=O)N[C@@H](CC(C)C)C(=O)N[C@@H](CCCCN)C(=O)N[C@@H](CC(C)C)C(=O)N[C@@H](CCCNC(=N)N)C(=O)N[C@@H](Cc7c[nH]cn7)C(=O)N[C@H](C(=O)N[C@@H](CCCNC(=N)N)C(=O)N7CCC[C@H]7C(=O)N[C@@H](CCCNC(=N)N)C(=O)N[C@H](C(=O)N[C@H](C(=O)N[C@@H](CCCNC(=N)N)C(=O)N[C@@H](CCSC)C(=O)N[C@@H](CC(=O)O)C(=O)N[C@H](C(=O)O)C(C)C)[C@@H](C)O)C(C)C)C(C)C)C(C)C)C6=O)CC5)CC4)cc13)-c1cc3c(c(=O)n1C2)COC(=O)[C@]3(O)CC` (some centres unmarked) [DPV1047-linker #7-SN38] (H-C(X2)VKRGLKLRHVRPRVTRMDV-OH; N-terminus and C-terminus assumed) here?
A: The half-life was 2.5 h.

Q: And the half-life [2, 9]?
A: The half-life was 2.75 h.

Q: And the half-life [4, 10]?
A: Its half-life is < 0.05 h.

Q: What about the half-life ([4]; monkey) of the same molecule?
A: The half-life was 1.5 h.

Q: What about the half-life ([4]; rat) of the same molecule?
A: Its half-life is 0.15 h.

Q: Which results are given for `CC[C@@]1(O)C(=O)OCc2c1cc1n(c2=O)Cc2cc3cc(OC(=O)[C@H]4CC[C@H](CNC(=O)C5CCC(CN6C(=O)CC(SC[C@H](N)C(=O)N[C@H](C(=O)N[C@@H](CCCCN)C(=O)N[C@@H](CCCNC(=N)N)C(=O)NCC(=O)N[C@@H](CC(C)C)C(=O)N[C@@H](CCCCN)C(=O)N[C@@H](CC(C)C)C(=O)N[C@@H](CCCNC(=N)N)C(=O)N[C@@H](Cc7c[nH]cn7)C(=O)N[C@H](C(=O)N[C@@H](CCCNC(=N)N)C(=O)N7CCC[C@H]7C(=O)N[C@@H](CCCNC(=N)N)C(=O)N[C@H](C(=O)N[C@H](C(=O)N[C@@H](CCCNC(=N)N)C(=O)N[C@@H](CCSC)C(=O)N[C@@H](CC(=O)O)C(=O)N[C@H](C(=O)O)C(C)C)[C@@H](C)O)C(C)C)C(C)C)C(C)C)C6=O)CC5)CC4)ccc3nc2-1` (some centres unmarked) [DPV1047-linker #5-10 Hydroxycamptothecin] (H-C(X4)VKRGLKLRHVRPRVTRMDV-OH; N-terminus and C-terminus assumed)?
A: IC50 ([5]; 48 h): 112 nM; half-life [1, 11]: 3.57 h; half-life [2, 12]: 3 h; IC50 ([3]; 48 h): 185 nM

Q: Which IC50 ([5]; 48 h) does the source give for `CC[C@H](C)[C@H](NC(=O)[C@H](CCCCN)NC(=O)[C@@H](NC(=O)[C@H](CCC(N)=O)NC(=O)[C@H](CCCNC(=N)N)NC(=O)[C@@H](N)CSC1CC(=O)N(CC2CCC(C(=O)NC[C@H]3CC[C@H](C(=O)Oc4ccc5nc6c(cc5c4)Cn4c-6cc5c(c4=O)COC(=O)[C@]5(O)CC)CC3)CC2)C1=O)[C@@H](C)CC)C(=O)N[C@@H](Cc1c[nH]c2ccccc12)C(=O)N[C@@H](Cc1ccccc1)C(=O)N[C@@H](CCC(N)=O)C(=O)N[C@@H](CC(N)=O)C(=O)N[C@@H](CCCNC(=N)N)C(=O)N[C@@H](CCCNC(=N)N)C(=O)N[C@@H](CCSC)C(=O)N[C@@H](CCCCN)C(=O)N[C@@H](Cc1c[nH]c2ccccc12)C(=O)N[C@@H](CCCCN)C(=O)N[C@@H](CCCCN)C(=O)O` (some centres unmarked) here?
A: Its IC50 is 161 nM.

Q: And the half-life [1, 11]?
A: Its half-life is 0.533 h.

Q: What about the half-life [2, 12] of the same molecule?
A: Its half-life is 1.83 h.

Q: And the IC50 ([3]; 48 h)?
A: The IC50 was 194 nM.

Q: For “Tat-linker #7-10 Hydroxycamptothecin: Tat48-60 peptide coupled via linker #7 to 10-Hydroxycamptothecin (GRKKRRQRRRAHQ; also: coupled via linker #7 to 10-hydroxycamptothecin, site not given here; UniProt P04608 48-60, looked up, fragment)”, which IC50 ([5]; Table 15, 48 h continuous exposure, mean of three independent experiments, read-out: Drug concentration that inhibits 50% of cell viability (IC50), NCI-H460) is on record?
A: Its IC50 is 127 nM.

Q: And the IC50 ([3]; Table 15, 48 h continuous exposure, mean of three independent experiments, read-out: Drug concentration that inhibits 50% of cell viability (IC50), HCT 116)?
A: Its IC50 is 158 nM.

Q: With `CC[C@@]1(O)C(=O)OCc2c1cc1n(c2=O)Cc2cc3cc(O)ccc3nc2-1` [10-Hydroxycamptothecin, reference compound] as the molecule, how does the IC50 ([5]; Homo sapiens, NCI-H460, 48 h, read-out: Drug concentration that inhibits 50% of cell viability (IC50), NCI-H460) read?
A: Its IC50 is 21 nM.

Q: And the IC50 ([3]; Homo sapiens, HCT-116, 48 h, read-out: Drug concentration that inhibits 50% of cell viability (IC50), HCT 116)?
A: The IC50 was 64 nM.
